Laboratory results as given in US20160159910A1 (Genentech, published 2016).

T1: human B7-H4 (human, UniProt Q7Z7D3 29-282)
T1 sequence: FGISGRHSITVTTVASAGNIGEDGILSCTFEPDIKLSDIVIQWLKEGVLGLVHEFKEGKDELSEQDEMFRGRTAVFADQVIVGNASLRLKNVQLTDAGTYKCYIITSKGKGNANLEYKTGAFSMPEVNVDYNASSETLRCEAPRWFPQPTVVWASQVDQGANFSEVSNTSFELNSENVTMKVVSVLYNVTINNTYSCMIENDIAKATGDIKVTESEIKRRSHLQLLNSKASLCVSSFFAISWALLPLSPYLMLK

T2: mouse B7-H4 (mouse, UniProt Q7TSP5 29-283)
T2 construct: On stably transfected 293 cells; also called muB7-H4; recombinant mouse B7-H4
T2 sequence: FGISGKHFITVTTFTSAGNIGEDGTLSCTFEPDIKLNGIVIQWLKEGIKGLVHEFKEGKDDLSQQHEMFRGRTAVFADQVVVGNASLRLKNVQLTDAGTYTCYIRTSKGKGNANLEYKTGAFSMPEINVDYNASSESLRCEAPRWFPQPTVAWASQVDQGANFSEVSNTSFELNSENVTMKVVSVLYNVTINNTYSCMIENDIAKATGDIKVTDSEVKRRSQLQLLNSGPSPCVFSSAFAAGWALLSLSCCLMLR

T3: human B7-H4 S114A glycosylation mutant (human, UniProt Q7Z7D3 29-282)
T3 construct: Full-length human B7-H4 membrane construct with S114 changed to alanine to prevent N-linked glycosylation at N112-S114; transiently expressed on 293 cells; also called mutated S114A human B7-H4; recombinant human B7-H4 S114A
T3 sequence: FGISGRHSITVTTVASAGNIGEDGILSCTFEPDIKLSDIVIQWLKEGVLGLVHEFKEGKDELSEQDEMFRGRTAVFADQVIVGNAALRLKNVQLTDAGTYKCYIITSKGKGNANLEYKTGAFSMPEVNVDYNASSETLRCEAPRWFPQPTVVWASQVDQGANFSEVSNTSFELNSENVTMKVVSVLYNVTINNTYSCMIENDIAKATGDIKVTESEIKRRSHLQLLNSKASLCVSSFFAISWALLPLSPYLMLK


Experiments:
human B7-H4 = target: T1, human B7-H4; test: cell-based or functional assay
mouse B7-H4 = target: T2, mouse B7-H4; test: FACS titration on 293 cells expressing recombinant mouse B7-H4 (panel '293-mouse B7-H4', lower block), geometric mean fluorescence
Procedure: The fluorescent signal was acquired with a BD FACS Calibur and EC₅₀ values were determined with the Graph Pad program Prism 4.

[1] = target: T3, human B7-H4 S114A glycosylation mutant; test: FACS on 293 cells transfected with S114A human B7-H4 (glycosylation independence)

Binder	EC50 of in vitro killing (CellTiter-Glo cell viability, 4 days) of 293 cells over-expressing recombinant human B7-H4 (human B7-H4) [µg/mL]	also measured
hu1D11v1.9-varD-vc-MMAE (antibody, MC-vc-PAB-MMAE conjugated to reduced cysteine residues of the antibody (sites not given); DAR ~3) heavy: not shown light: DIQMTQSPSSLSASVGDRVTITCKASQGFNKYVAWYQQKPGKAPKLLIYYTSTLQPGVPSRFSGSGSGRDYTLTISSLQPEDFATYYCLQYGDLLYAFGQGTKVEIKRTVAAPSVFIFPPSDEQLKSGTASVVCLLNNFYPREAKVQWKVDNALQSGNSQESVTEQDSKDSTYSLSSTLTLSKADYEKHKVYACEVTHQGLSSPVTKSFNRGEC	0.0554	
hu1D11v1.9-varD IgG1 A118C-vc-MMAE (antibody, MC-vc-PAB-MMAE on the engineered cysteine A118C (EU numbering); DAR ~2) heavy: not shown light: DIQMTQSPSSLSASVGDRVTITCKASQGFNKYVAWYQQKPGKAPKLLIYYTSTLQPGVPSRFSGSGSGRDYTLTISSLQPEDFATYYCLQYGDLLYAFGQGTKVEIKRTVAAPSVFIFPPSDEQLKSGTASVVCLLNNFYPREAKVQWKVDNALQSGNSQESVTEQDSKDSTYSLSSTLTLSKADYEKHKVYACEVTHQGLSSPVTKSFNRGEC	0.0819	
hu22C10v2.7-vc-MMAE (antibody, MC-vc-PAB-MMAE conjugated to reduced cysteine residues of the antibody (sites not given); DAR ~3) heavy: not shown light: DIQMTQSPSSLSASVGDRVTITCSATSSISYMHWYQQKPGKAPKGWIYDTSKLAHGVPSRFSGSGSGTDFTLTISSLQPEDFATYYCHQRRSYPFTFGQGTKVEIKRTVAAPSVFIFPPSDEQLKSGTASVVCLLNNFYPREAKVQWKVDNALQSGNSQESVTEQDSKDSTYSLSSTLTLSKADYEKHKVYACEVTHQGLSSPVTKSFNRGEC	0.0339	
hu22C10v2.7 IgG1 A118C-vc-MMAE (antibody, MC-vc-PAB-MMAE on the engineered cysteine A118C (EU numbering); DAR ~2) heavy: not shown light: DIQMTQSPSSLSASVGDRVTITCSATSSISYMHWYQQKPGKAPKGWIYDTSKLAHGVPSRFSGSGSGTDFTLTISSLQPEDFATYYCHQRRSYPFTFGQGTKVEIKRTVAAPSVFIFPPSDEQLKSGTASVVCLLNNFYPREAKVQWKVDNALQSGNSQESVTEQDSKDSTYSLSSTLTLSKADYEKHKVYACEVTHQGLSSPVTKSFNRGEC	0.0405	
humanized 1D11.v1.9 (antibody, V domains shown, also called hu1D11.v1.9; h1D11.v1.9) VH: EVQLVQSGAEVKKPGASVKVSCKASGYTFTSYWIGWVRQAPGQGLEWIGDIYPGGGYTNYNEKFKGRVTITRDTSTSTAYLELSSLRSEDTAVYYCARLDGSSYRGAMDSWGQGTLVTVSS VL: DIQMTQSPSSLSASVGDRVTITCKASQGFNKYVAWYQQKPGKAPKLLIYYTSTLQPGVPSRFSGSGSGRDYTLTISSLQPEDFATYYCLQYGNLLYAFGQGTKVEIKR		EC50 (mouse B7-H4): 0.36 µg/mL
ch1D11, slightly modified version with light chain C43G (antibody, V domains shown, Human IgG1 / human kappa chimeric antibody; Dylight-488 or -650 labeled in the assay; also called ch1D11 (C43G)) VH: QVQLQQSGAELVRPGTSVKMSCKASGYTFTSYWIGWAKQRPGHGFEWIGDIYPGGGYTNYNEKFKGKATLTADKSSSTAYMQFSSLTSEDSAIYYCARLDGSSYRGAMDSWGQGTSITVSS VL: DIQMTQSPSSLSASLGGKVTITCKASQGFNKYVAWYQHKPGQGPRLLIHYTSTLQPGIPARFSGSGSGRDYSFSISNLEPEDSATYFCLQYGNLLYAFGGGTKLEIKR		fold binding over the isotype control [1]: 100 fold
